Data taken from patent US20240092934A1 (FAMEWAVE, published 2024).

T1: recombinant human CEACAM-1 (R&D Systems cat. no. 2244-CM-050) (human, UniProt P13688 35-428)
T1 construct: Coated on the ELISA plate at 0.5 ug/ml
T1 sequence (looked up): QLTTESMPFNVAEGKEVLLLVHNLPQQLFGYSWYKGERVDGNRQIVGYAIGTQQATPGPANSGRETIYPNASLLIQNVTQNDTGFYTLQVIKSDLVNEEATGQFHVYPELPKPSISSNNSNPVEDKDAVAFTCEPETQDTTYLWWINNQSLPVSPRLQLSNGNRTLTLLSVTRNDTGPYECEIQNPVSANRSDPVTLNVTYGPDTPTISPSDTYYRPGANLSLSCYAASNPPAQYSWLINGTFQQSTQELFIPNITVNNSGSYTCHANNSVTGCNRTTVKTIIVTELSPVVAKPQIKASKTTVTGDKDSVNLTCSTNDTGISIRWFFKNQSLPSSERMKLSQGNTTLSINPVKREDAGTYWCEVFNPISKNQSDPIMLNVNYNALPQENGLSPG

B1: humanized anti-CEACAM-1 variant VH3/VK2, IgG1 (antibody, V domains shown)
VH: QVQLVQSGAEVKKPGASVKVSCKASGYAFTNNLIEWVRQAPGQGLEWIGVINPGSGDTNYNEKFKGRATLTADKSINTAYMELSRLRSDDTAVYYCARGDYYGGFAVDYWGQGTTVTVSS
VL: DIQMTQSPSSLSASVGDRVTITCRTSQDIGNYLNWYQQKPGKAVKLLIYYTSRLHSGVPSRFSGSGSGTDYTLTISSLQPEDIATYFCQQGKSLPRTFGGGTKVEIK
notes: Tested as human IgG1 / kappa antibody; only the variable regions are tied to this variant
B2: humanized anti-CEACAM-1 variant VH1/VK3, IgG4 (S241P) (antibody, V domains shown)
VH: QVQLVQSGAELKKPGASVKVSCKASGYAFTNNLIEWVKQAPGQGLEWIGVINPGSGDTNYNEKFKGRATLTADKSINTAYMELSSLTSDDSAVYFCARGDYYGGFAVDYWGQGTSVTVSS
VL: DIQMTQSPSSLSASVGDRVTITCRTSQDIGNYLNWYQQKPGKAVKLLIYYTSRLHSGVPSRFSGSGSGTDYTFTISSLQPEDIATYFCQQGKSLPRTFGGGTKVEIK
notes: Tested as human IgG4 (S241P) / kappa antibody; only the variable regions are tied to this variant
B3: humanized anti-CEACAM-1 variant VH3/VK3, IgG4 (S241P) (antibody, V domains shown)
VH: QVQLVQSGAEVKKPGASVKVSCKASGYAFTNNLIEWVRQAPGQGLEWIGVINPGSGDTNYNEKFKGRATLTADKSINTAYMELSRLRSDDTAVYYCARGDYYGGFAVDYWGQGTTVTVSS
VL: DIQMTQSPSSLSASVGDRVTITCRTSQDIGNYLNWYQQKPGKAVKLLIYYTSRLHSGVPSRFSGSGSGTDYTFTISSLQPEDIATYFCQQGKSLPRTFGGGTKVEIK
notes: as for B2
B4: humanized anti-CEACAM-1 variant VH2/VK2, IgG1 (antibody, V domains shown)
VH: QVQLVQSGAEVKKPGASVKVSCKASGYAFTNNLIEWVKQAPGQGLEWIGVINPGSGDTNYNEKFKGRATLTADKSINTAYMELSRLRSDDTAVYFCARGDYYGGFAVDYWGQGTTVTVSS
VL: DIQMTQSPSSLSASVGDRVTITCRTSQDIGNYLNWYQQKPGKAVKLLIYYTSRLHSGVPSRFSGSGSGTDYTLTISSLQPEDIATYFCQQGKSLPRTFGGGTKVEIK
notes: as for B1
B5: humanized anti-CEACAM-1 variant VH1/VK3, IgG1 (antibody, V domains shown)
VH: QVQLVQSGAELKKPGASVKVSCKASGYAFTNNLIEWVKQAPGQGLEWIGVINPGSGDTNYNEKFKGRATLTADKSINTAYMELSSLTSDDSAVYFCARGDYYGGFAVDYWGQGTSVTVSS
VL: DIQMTQSPSSLSASVGDRVTITCRTSQDIGNYLNWYQQKPGKAVKLLIYYTSRLHSGVPSRFSGSGSGTDYTFTISSLQPEDIATYFCQQGKSLPRTFGGGTKVEIK
notes: as for B1
B6: humanized anti-CEACAM-1 variant VH4/VK1, IgG4 (S241P) (antibody, V domains shown)
VH: QVQLVQSGAEVKKPGASVKVSCKASGYAFTNNLIEWVRQAPGQGLEWIGVINPGSGDTNYNEKFKGRATLTADKSISTAYMELSRLRSDDTAVYYCARGDYYGGFAVDYWGQGTTVTVSS
VL: DIQMTQSPSSLSASVGDRVTITCRTSQDIGNYLNWYQQKPGKAVKLLIYYTSRLHSGVPSRFSGSGSGTDYTLTISSLQQEDIATYFCQQGKSLPRTFGGGTKVEIK
notes: as for B2
B7: humanized anti-CEACAM-1 variant VH2/VK3, IgG4 (S241P) (antibody, V domains shown)
VH: QVQLVQSGAEVKKPGASVKVSCKASGYAFTNNLIEWVKQAPGQGLEWIGVINPGSGDTNYNEKFKGRATLTADKSINTAYMELSRLRSDDTAVYFCARGDYYGGFAVDYWGQGTTVTVSS
VL: DIQMTQSPSSLSASVGDRVTITCRTSQDIGNYLNWYQQKPGKAVKLLIYYTSRLHSGVPSRFSGSGSGTDYTFTISSLQPEDIATYFCQQGKSLPRTFGGGTKVEIK
notes: as for B2
B8: humanized anti-CEACAM-1 variant VH2/VK1, IgG4 (S241P) (antibody, V domains shown)
VH: QVQLVQSGAEVKKPGASVKVSCKASGYAFTNNLIEWVKQAPGQGLEWIGVINPGSGDTNYNEKFKGRATLTADKSINTAYMELSRLRSDDTAVYFCARGDYYGGFAVDYWGQGTTVTVSS
VL: DIQMTQSPSSLSASVGDRVTITCRTSQDIGNYLNWYQQKPGKAVKLLIYYTSRLHSGVPSRFSGSGSGTDYTLTISSLQQEDIATYFCQQGKSLPRTFGGGTKVEIK
notes: as for B2
B9: humanized anti-CEACAM-1 variant VH2/VK1, IgG1 (antibody, V domains shown)
VH: QVQLVQSGAEVKKPGASVKVSCKASGYAFTNNLIEWVKQAPGQGLEWIGVINPGSGDTNYNEKFKGRATLTADKSINTAYMELSRLRSDDTAVYFCARGDYYGGFAVDYWGQGTTVTVSS
VL: DIQMTQSPSSLSASVGDRVTITCRTSQDIGNYLNWYQQKPGKAVKLLIYYTSRLHSGVPSRFSGSGSGTDYTLTISSLQQEDIATYFCQQGKSLPRTFGGGTKVEIK
notes: as for B1
B10: humanized anti-CEACAM-1 variant VH2/VK3, IgG1 (antibody, V domains shown)
VH: QVQLVQSGAEVKKPGASVKVSCKASGYAFTNNLIEWVKQAPGQGLEWIGVINPGSGDTNYNEKFKGRATLTADKSINTAYMELSRLRSDDTAVYFCARGDYYGGFAVDYWGQGTTVTVSS
VL: DIQMTQSPSSLSASVGDRVTITCRTSQDIGNYLNWYQQKPGKAVKLLIYYTSRLHSGVPSRFSGSGSGTDYTFTISSLQPEDIATYFCQQGKSLPRTFGGGTKVEIK
notes: as for B1
B11: humanized anti-CEACAM-1 variant VH3/VK1, IgG1 (antibody, V domains shown)
VH: QVQLVQSGAEVKKPGASVKVSCKASGYAFTNNLIEWVRQAPGQGLEWIGVINPGSGDTNYNEKFKGRATLTADKSINTAYMELSRLRSDDTAVYYCARGDYYGGFAVDYWGQGTTVTVSS
VL: DIQMTQSPSSLSASVGDRVTITCRTSQDIGNYLNWYQQKPGKAVKLLIYYTSRLHSGVPSRFSGSGSGTDYTLTISSLQQEDIATYFCQQGKSLPRTFGGGTKVEIK
notes: as for B1
B12: humanized anti-CEACAM-1 variant VH1/VK1, IgG1 (antibody, V domains shown)
VH: QVQLVQSGAELKKPGASVKVSCKASGYAFTNNLIEWVKQAPGQGLEWIGVINPGSGDTNYNEKFKGRATLTADKSINTAYMELSSLTSDDSAVYFCARGDYYGGFAVDYWGQGTSVTVSS
VL: DIQMTQSPSSLSASVGDRVTITCRTSQDIGNYLNWYQQKPGKAVKLLIYYTSRLHSGVPSRFSGSGSGTDYTLTISSLQQEDIATYFCQQGKSLPRTFGGGTKVEIK
notes: as for B1
B13: humanized anti-CEACAM-1 variant VH3/VK1, IgG4 (S241P) (antibody, V domains shown)
VH: QVQLVQSGAEVKKPGASVKVSCKASGYAFTNNLIEWVRQAPGQGLEWIGVINPGSGDTNYNEKFKGRATLTADKSINTAYMELSRLRSDDTAVYYCARGDYYGGFAVDYWGQGTTVTVSS
VL: DIQMTQSPSSLSASVGDRVTITCRTSQDIGNYLNWYQQKPGKAVKLLIYYTSRLHSGVPSRFSGSGSGTDYTLTISSLQQEDIATYFCQQGKSLPRTFGGGTKVEIK
notes: as for B2
B14: humanized anti-CEACAM-1 variant VH1/VK1, IgG4 (S241P) (antibody, V domains shown)
VH: QVQLVQSGAELKKPGASVKVSCKASGYAFTNNLIEWVKQAPGQGLEWIGVINPGSGDTNYNEKFKGRATLTADKSINTAYMELSSLTSDDSAVYFCARGDYYGGFAVDYWGQGTSVTVSS
VL: DIQMTQSPSSLSASVGDRVTITCRTSQDIGNYLNWYQQKPGKAVKLLIYYTSRLHSGVPSRFSGSGSGTDYTLTISSLQQEDIATYFCQQGKSLPRTFGGGTKVEIK
notes: as for B2
B15: humanized anti-CEACAM-1 variant VH3/VK3, IgG1 (antibody, V domains shown)
VH: QVQLVQSGAEVKKPGASVKVSCKASGYAFTNNLIEWVRQAPGQGLEWIGVINPGSGDTNYNEKFKGRATLTADKSINTAYMELSRLRSDDTAVYYCARGDYYGGFAVDYWGQGTTVTVSS
VL: DIQMTQSPSSLSASVGDRVTITCRTSQDIGNYLNWYQQKPGKAVKLLIYYTSRLHSGVPSRFSGSGSGTDYTFTISSLQPEDIATYFCQQGKSLPRTFGGGTKVEIK
notes: as for B1
B16: humanized anti-CEACAM-1 variant VH2/VK2, IgG4 (S241P) (antibody, V domains shown)
VH: QVQLVQSGAEVKKPGASVKVSCKASGYAFTNNLIEWVKQAPGQGLEWIGVINPGSGDTNYNEKFKGRATLTADKSINTAYMELSRLRSDDTAVYFCARGDYYGGFAVDYWGQGTTVTVSS
VL: DIQMTQSPSSLSASVGDRVTITCRTSQDIGNYLNWYQQKPGKAVKLLIYYTSRLHSGVPSRFSGSGSGTDYTLTISSLQPEDIATYFCQQGKSLPRTFGGGTKVEIK
notes: as for B2
B17: humanized anti-CEACAM-1 variant VH1/VK2, IgG1 (antibody, V domains shown)
VH: QVQLVQSGAELKKPGASVKVSCKASGYAFTNNLIEWVKQAPGQGLEWIGVINPGSGDTNYNEKFKGRATLTADKSINTAYMELSSLTSDDSAVYFCARGDYYGGFAVDYWGQGTSVTVSS
VL: DIQMTQSPSSLSASVGDRVTITCRTSQDIGNYLNWYQQKPGKAVKLLIYYTSRLHSGVPSRFSGSGSGTDYTLTISSLQPEDIATYFCQQGKSLPRTFGGGTKVEIK
notes: as for B1
B18: humanized anti-CEACAM-1 variant VH1/VK2, IgG4 (S241P) (antibody, V domains shown)
VH: QVQLVQSGAELKKPGASVKVSCKASGYAFTNNLIEWVKQAPGQGLEWIGVINPGSGDTNYNEKFKGRATLTADKSINTAYMELSSLTSDDSAVYFCARGDYYGGFAVDYWGQGTSVTVSS
VL: DIQMTQSPSSLSASVGDRVTITCRTSQDIGNYLNWYQQKPGKAVKLLIYYTSRLHSGVPSRFSGSGSGTDYTLTISSLQPEDIATYFCQQGKSLPRTFGGGTKVEIK
notes: as for B2
B19: humanized anti-CEACAM-1 variant VH4/VK1, IgG1 (antibody, V domains shown)
VH: QVQLVQSGAEVKKPGASVKVSCKASGYAFTNNLIEWVRQAPGQGLEWIGVINPGSGDTNYNEKFKGRATLTADKSISTAYMELSRLRSDDTAVYYCARGDYYGGFAVDYWGQGTTVTVSS
VL: DIQMTQSPSSLSASVGDRVTITCRTSQDIGNYLNWYQQKPGKAVKLLIYYTSRLHSGVPSRFSGSGSGTDYTLTISSLQQEDIATYFCQQGKSLPRTFGGGTKVEIK
notes: as for B1

The binders below were run against T1, recombinant human CEACAM-1 (R&D Systems …) (assay: competition ELISA on coated recombinant human CEACAM-1; competitor biotinylated chimeric CM-10 IgG1).
From the text: The binding of the biotinylated antibody was detected with streptavidin-HRP (Sigma cat. no. S5512) and TMB substrate (Invitrogen cat. no. 00-2023). The reaction was stopped with 3M HC1, absorbance read at 450 nm on a Dynex Technologies MRX TC II plate reader and the binding curves plotted.

Binder	IC50	IC50 normalized to CM-10
B1	0.85 µg/mL	1.36 ratio to IC50 of chimeric CM-10
B2	0.54 µg/mL	1.05 ratio to IC50 of chimeric CM-10
B3	0.73 µg/mL	1.23 ratio to IC50 of chimeric CM-10
B4	0.78 µg/mL	1.24 ratio to IC50 of chimeric CM-10
B5	0.77 µg/mL	1.44 ratio to IC50 of chimeric CM-10
B6	0.69 µg/mL	1.15 ratio to IC50 of chimeric CM-10
B7	0.71 µg/mL	1.16 ratio to IC50 of chimeric CM-10
B8	0.43 µg/mL	0.84 ratio to IC50 of chimeric CM-10
B9	0.68 µg/mL	1.29 ratio to IC50 of chimeric CM-10
B10	0.76 µg/mL	1.21 ratio to IC50 of chimeric CM-10
B11	0.69 µg/mL	1.1 ratio to IC50 of chimeric CM-10
B12	0.78 µg/mL	1.46 ratio to IC50 of chimeric CM-10
B13	0.71 µg/mL	1.16 ratio to IC50 of chimeric CM-10
B14	0.78 µg/mL	1.52 ratio to IC50 of chimeric CM-10
B15	0.86 µg/mL	1.37 ratio to IC50 of chimeric CM-10
B16	0.76 µg/mL	1.26 ratio to IC50 of chimeric CM-10
B17	0.7 µg/mL	1.32 ratio to IC50 of chimeric CM-10
B18	0.7 µg/mL	1.36 ratio to IC50 of chimeric CM-10
B19	0.73 µg/mL	1.15 ratio to IC50 of chimeric CM-10
